For this data set, the target named is prothrombin.

B1: oscutarin C (OsPA), Group C prothrombin activator purified from Oxyuranus scutellatus (Coastal Taipan) venom, preparation 17 Apr. 2012 (protein)
chain 1: ANSLYEEFRSGNIERECIEERCSKEEAREVFEDDEKTETFWNVYVDGDQCSSNPCHYRGTCKDGIGSYTCTCLSGYEGKNCERVLYKSCRVDNGNCWHFCKPVQNDIQCSCAEGYLLGEDGHSCVAGGNFSCGRNIKTRNKREASLPDFVQSQNAILLKKSDNPSPDIRIVNGMDCKLGECPWQAVLVDEKEDAFCGGTILSPIYVLTAAHCINQTKMISVVVGEINISRKNPGRLLSVDKIYVHQKFVPPKKGYEFYEKFDLVSYDYDIAILQMKTPIQFSENVVPACLPTADFANQVLMKQDFGIVSGFGRIFEKGPQSKTLKVLKVPYVDRHTCMLSSESPITPTMFCAGYDTLPRDACQGDSGGPHITAYRDTHFITGIVSWGEGCAQTGKYGVYTKVSKFILWIKRIMRQKLPSTESSTGRL
chain 2: AQLREYRLAAQLEDWDYNPQPEELSRLSESDLTFKKIVYREYELDFKQEKPRDELSGLLGPTLRGEVGDSLIIYFKNFATQPVSIHPQSAVYNKWSEGSSYSDGTSDVERLDDAVPPGQSFKYVWNITAEIGPKKADPPCLTYAYYSHVNMVRDFNSGLIGALLICKEGSLNADGAQKFFNREYVLMFSVFDESKNWYRKPSLQYTINGFANGTLPDVQACAYDHISWHLIGMSSSPEIFSVHFNGQTLEQNHYKVSTINLVGGASVTANMSVSRTGKWLISSLVAKHLQAGMYGYLNIKDCGNPDTLTRKLSFRERRRIMKWEYFIAAEEITWDYAPEIPSSVDRRYKAQYLDNFSNFIGKKYKKAVFRQYEDSNFTKPTYAIWPKERGILGPVIKAKVRDTVTIVFKNLASRPYSIYVHGVSVSKDAEGAVYPSDPKENITHGKAVEPGQVYTYKWTVLDTDEPTVKDSECITKLYHSAVDMTRDIASGLIGPPLVCKRKALSIRGVQNKADVEQHAVFAVFDENKSWYLEDNIKKYCSNPSSVKKDDPKFYKSNVMYTLNGYASDRTEVWGFHQSEVVEWHLTSVGTVDEIVPVHLSGHTFLSKGKHQDILNLFPMSGESATVTMDNLGTWLLSSWGSCEMSNGMRLRFLDANYDDEDEGNEEEEEDDGDIFADIFNPPEVVIKKEEVPVNFVPDPESDALAKELGLFDDEDNPKQSRSEQTEDDEEQLMIASMLGLRSFKGSVAEEELKHTALALEEDAHASDPRIDSNSAHNSDDIAGRYLRTINRRNKRRYYIAAEEVLWDYSPIGKSQVRSLPAKTTFKKAIFRSYLDDTFQTPSTGGEYEKHLGILGPIIRAEVDDVIEVQFRNLASRPYSLHAHGLLYEKSSEGRSYDDNSPELFKKDDAIMPNGTYTYVWQVPPRSGPTDNTEKCKSWAYYSGVNPEKDIHSGLIGPILICQKGMIDKYNRTIDIREFVLFFMVFDEEKSWYFPKSDKSTCEEKLIGVQSRHTFPAINGIPYQLQGLMMYKDENVHWHLLNMGGPKDVHVVNFHGQTFTEEGREDNQLGVLPLLPGTFASIKMKPSKIGTWLLETEVGENQERGMQALFTVIDKDCKLPMGLASGIIQDSQISASGHVGYWEPKLARLNNTGMFNAWSIIKKEHEHPWIQIDLQRQVVITGIQTQGTVQLLKHSYTVEYFVTYSKDGQNWITFKGRHSKTQMHFEGNSDGTTVKENHIDPPIIARYIRLHPTKFYNTPTFRIELLGCEVEGCSVPLGMESGAIKDSEITASSYKKTWWSSWEPFLARLNLKGRTNAWQPKVNNKDQWLQIDLQHLTKITSIITQGATSMTTSMYVKTFSIHYTDDNSTWKPYLDVRTSMEKVFTGNINSDGHVKHFFNPPILSRFIRIIPKTWNQYIALRIELFGCEVF
Turning to B1, the “rate of prothrombin activation in the S-2238 two-stage assay (thrombin produced against sampling time)” value is recorded as “(eg) (9.98e-6 umol/min)” and the “specific activity of the prothrombin activator (rate of thrombin production against OsPA concentration)” value is given as “(eg) (5.0e-3 units/mg)”.

The values are drawn from patent publication US20170304407.
